Among the data in article PMC7046727 are Kd values, retold here.

Test [1] has as its target sLif, soluble form of Pseudomonas aeruginosa lipase-specific foldase Lif that lacks the transmembrane domain (TMD) (Pseudomonas aeruginosa). Put plainly: other fluorescence titration; sLif / sLif_(Y99A) labelled with BDP FL (1.2 nM label, total about 24 nM) with 0-50 uM LipA overnight at 4 °C in 10 mM glycine buffer pH 9; steady-state anisotropy and average translational diffusion time (FCS) on a confocal microscope (sLif_(Y99A): diffusion time only); 1:1 binding model; apparent KD.

The target in test [2] is sLif_(Y99A), variant of soluble P. aeruginosa Lif with Y99 mutated to alanine (Pseudomonas aeruginosa). Described as above.

Turning to “lipase LipA of Pseudomonas aeruginosa, pre-active form refolded in vitro (enzyme)”, the Kd in test [1] is 29 nM; in test [2], 77 nM.
